Reference: US20260242735A1 (UNIVERSIT T BASEL, published 2026)

Assays:
[1] = target: T1, CD33 variant W22R on base-edited human CD34+ HSPCs (human, UniProt P20138 18-364); assay: flow cytometry sorting and NGS of sgRNA-E base-edited human CD34+ HSPCs
T1 construct: also called sgRNA-E edited CD33

[2] = target: T2, human wild-type CD33 (human, UniProt P20138 18-364); assay: flow cytometry, IgG at 0.25 ug/ml on HEK293-T cells expressing CD33 against vector alone
T2 construct: also called SIGLEC3; P67

[3] = target: CD33 variant F21V (recombinant, biotinylated) (human, UniProt P20138 22-259, biotinylated with EZ-Link Sulfo-NHS-LC-Biotin (sites not given)); assay: BLI (Octet R8), avidity format: biotinylated CD33 on streptavidin sensor, Refmab #4 as analyte at 500 nM;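 further: analyte association recorded over 300 s, followed by a 900 s dissociation phase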
Sequence of CD33 variant F21V (recombinant, biotinylated) (P20138 other isoform, or with tags, fused parts or gaps F21V F21V): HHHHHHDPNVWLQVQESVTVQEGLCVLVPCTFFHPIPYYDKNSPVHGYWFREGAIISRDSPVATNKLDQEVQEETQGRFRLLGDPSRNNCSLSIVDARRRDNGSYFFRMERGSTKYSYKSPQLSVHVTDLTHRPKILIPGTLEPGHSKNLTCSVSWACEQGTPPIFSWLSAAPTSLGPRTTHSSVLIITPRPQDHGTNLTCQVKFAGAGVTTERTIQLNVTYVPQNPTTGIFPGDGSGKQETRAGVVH

[4] = target: CD33 variant F21L (recombinant, biotinylated) (human, UniProt P20138 22-259, biotinylated with EZ-Link Sulfo-NHS-LC-Biotin (sites not given)); assay: as above
Sequence of CD33 variant F21L (recombinant, biotinylated) (P20138 other isoform, or with tags, fused parts or gaps F21L F21L): as the sequence (P20138 other isoform, or with tags, fused parts or gaps F21V F21V) above, with V10L counted along it

[5] = target: CD33 variant F21I (recombinant, biotinylated) (human, UniProt P20138 22-259, biotinylated with EZ-Link Sulfo-NHS-LC-Biotin (sites not given)); assay: as above
[6] = target: CD33 variant F21S (recombinant, biotinylated) (human, UniProt P20138 22-259, biotinylated with EZ-Link Sulfo-NHS-LC-Biotin (sites not given)); assay: as above
Sequence of CD33 variant F21S (recombinant, biotinylated) (P20138 other isoform, or with tags, fused parts or gaps F21S F21S): as the sequence (P20138 other isoform, or with tags, fused parts or gaps F21V F21V) above, with V10S counted along it

[7] = target: CD33 variant F21M (recombinant, biotinylated) (human, UniProt P20138 22-259, biotinylated with EZ-Link Sulfo-NHS-LC-Biotin (sites not given)); assay: as above
Sequence of CD33 variant F21M (recombinant, biotinylated) (P20138 other isoform, or with tags, fused parts or gaps F21M F21M): as the sequence (P20138 other isoform, or with tags, fused parts or gaps F21V F21V) above, with V10M counted along it

[8] = target: CD33 variant F21N (recombinant, biotinylated) (human, UniProt P20138 22-259, biotinylated with EZ-Link Sulfo-NHS-LC-Biotin (sites not given)); assay: as above
Sequence of CD33 variant F21N (recombinant, biotinylated) (P20138 other isoform, or with tags, fused parts or gaps F21N F21N): as the sequence (P20138 other isoform, or with tags, fused parts or gaps F21V F21V) above, with V10N counted along it

[9] = target: CD33 variant F21Q (recombinant, biotinylated) (human, UniProt P20138 22-259, biotinylated with EZ-Link Sulfo-NHS-LC-Biotin (sites not given)); assay: as above
Sequence of CD33 variant F21Q (recombinant, biotinylated) (P20138 other isoform, or with tags, fused parts or gaps F21Q F21Q): as the sequence (P20138 other isoform, or with tags, fused parts or gaps F21V F21V) above, with V10Q counted along it

[10] = target: CD33 variant F21H (recombinant, biotinylated) (human, UniProt P20138 22-259, biotinylated with EZ-Link Sulfo-NHS-LC-Biotin (sites not given)); assay: as above
Sequence of CD33 variant F21H (recombinant, biotinylated) (P20138 other isoform, or with tags, fused parts or gaps F21H F21H): as the sequence (P20138 other isoform, or with tags, fused parts or gaps F21V F21V) above, with V10H counted along it

[11] = target: CD33 variant W22T (recombinant, biotinylated) (human, UniProt P20138 18-259, biotinylated with EZ-Link Sulfo-NHS-LC-Biotin (sites not given)); assay: as above
Sequence of CD33 variant W22T (recombinant, biotinylated) (P20138 other isoform, or with tags, fused parts or gaps W22T W22T): as the sequence (P20138 other isoform, or with tags, fused parts or gaps F21V F21V) above, with V10F, W11T counted along it

[12] = target: CD33 variant W22E (recombinant, biotinylated) (human, UniProt P20138 18-259, biotinylated with EZ-Link Sulfo-NHS-LC-Biotin (sites not given)); assay: as above
[13] = target: CD33 variant W22R (recombinant, biotinylated) (human, UniProt P20138 18-259, biotinylated with EZ-Link Sulfo-NHS-LC-Biotin (sites not given)); assay: as above
Sequence of CD33 variant W22R (recombinant, biotinylated) (P20138 other isoform, or with tags, fused parts or gaps W22R W22R): as the sequence (P20138 other isoform, or with tags, fused parts or gaps F21V F21V) above, with V10F, W11R counted along it

[14] = target: CD33 variant W22D (recombinant, biotinylated) (human, UniProt P20138 18-259, biotinylated with EZ-Link Sulfo-NHS-LC-Biotin (sites not given)); assay: as above
Sequence of CD33 variant W22D (recombinant, biotinylated) (P20138 other isoform, or with tags, fused parts or gaps W22D W22D): as the sequence (P20138 other isoform, or with tags, fused parts or gaps F21V F21V) above, with V10F, W11D counted along it

[15] = target: CD33 variant W22K (recombinant, biotinylated) (human, UniProt P20138 18-259, biotinylated with EZ-Link Sulfo-NHS-LC-Biotin (sites not given)); assay: as above
Sequence of CD33 variant W22K (recombinant, biotinylated) (P20138 other isoform, or with tags, fused parts or gaps W22K W22K): as the sequence (P20138 other isoform, or with tags, fused parts or gaps F21V F21V) above, with V10F, W11K counted along it

[16] = target: CD33 variant F44P (recombinant, biotinylated) (human, UniProt P20138 18-259, biotinylated with EZ-Link Sulfo-NHS-LC-Biotin (sites not given)); assay: as above
[17] = target: CD33 variant Y50D (recombinant, biotinylated) (human, UniProt P20138 18-259, biotinylated with EZ-Link Sulfo-NHS-LC-Biotin (sites not given)); assay: as above
Sequence of CD33 variant Y50D (recombinant, biotinylated) (P20138 other isoform, or with tags, fused parts or gaps Y50D Y50D): as the sequence (P20138 other isoform, or with tags, fused parts or gaps F21V F21V) above, with V10F, Y39D counted along it

[18] = target: CD33 variant Y50R (recombinant, biotinylated) (human, UniProt P20138 18-259, biotinylated with EZ-Link Sulfo-NHS-LC-Biotin (sites not given)); assay: as above
Sequence of CD33 variant Y50R (recombinant, biotinylated) (P20138 other isoform, or with tags, fused parts or gaps Y50R Y50R): as the sequence (P20138 other isoform, or with tags, fused parts or gaps F21V F21V) above, with V10F, Y39R counted along it

[19] = target: CD33 variant Y50K (recombinant, biotinylated) (human, UniProt P20138 18-259, biotinylated with EZ-Link Sulfo-NHS-LC-Biotin (sites not given)); assay: as above
Sequence of CD33 variant Y50K (recombinant, biotinylated) (P20138 other isoform, or with tags, fused parts or gaps Y50K Y50K): as the sequence (P20138 other isoform, or with tags, fused parts or gaps F21V F21V) above, with V10F, Y39K counted along it

[20] = target: CD33 double variant Y50H_H49H (recombinant, biotinylated) (human, UniProt P20138 18-259, biotinylated with EZ-Link Sulfo-NHS-LC-Biotin (sites not given)); assay: as above
Sequence of CD33 double variant Y50H_H49H (recombinant, biotinylated) (P20138 other isoform, or with tags, fused parts or gaps Y50H H49H Y50H H49H): as the sequence (P20138 other isoform, or with tags, fused parts or gaps F21V F21V) above, with V10F, Y38H, Y39H counted along it

[21] = target: T3, CD33 wild type (recombinant, biotinylated) (human, UniProt P20138 18-259, biotinylated with EZ-Link Sulfo-NHS-LC-Biotin (sites not given)); assay: as above
T3 construct: also called WT; CD33 wt

[22] = target: CD33 variant N20G (recombinant, biotinylated) (human, UniProt P20138 21-259, biotinylated with EZ-Link Sulfo-NHS-LC-Biotin (sites not given)); assay: as above
[23] = target: CD33 variant N20E (recombinant, biotinylated) (human, UniProt P20138 21-259, biotinylated with EZ-Link Sulfo-NHS-LC-Biotin (sites not given)); assay: as above
[24] = target: CD33 variant N20K (recombinant, biotinylated) (human, UniProt P20138 21-259, biotinylated with EZ-Link Sulfo-NHS-LC-Biotin (sites not given)); assay: as above
Sequence of CD33 variant N20K (recombinant, biotinylated) (P20138 other isoform, or with tags, fused parts or gaps N20K N20K): as the sequence (P20138 other isoform, or with tags, fused parts or gaps F21V F21V) above, with N9K, V10F counted along it

[25] = target: CD33 variant N20V (recombinant, biotinylated) (human, UniProt P20138 21-259, biotinylated with EZ-Link Sulfo-NHS-LC-Biotin (sites not given)); assay: as above
[26] = target: CD33 variant N20H (recombinant, biotinylated) (human, UniProt P20138 21-259, biotinylated with EZ-Link Sulfo-NHS-LC-Biotin (sites not given)); assay: as above
Sequence of CD33 variant N20H (recombinant, biotinylated) (P20138 other isoform, or with tags, fused parts or gaps N20H N20H): as the sequence (P20138 other isoform, or with tags, fused parts or gaps F21V F21V) above, with N9H, V10F counted along it

T1 sequence (P20138 18-364 W22R limits assumed): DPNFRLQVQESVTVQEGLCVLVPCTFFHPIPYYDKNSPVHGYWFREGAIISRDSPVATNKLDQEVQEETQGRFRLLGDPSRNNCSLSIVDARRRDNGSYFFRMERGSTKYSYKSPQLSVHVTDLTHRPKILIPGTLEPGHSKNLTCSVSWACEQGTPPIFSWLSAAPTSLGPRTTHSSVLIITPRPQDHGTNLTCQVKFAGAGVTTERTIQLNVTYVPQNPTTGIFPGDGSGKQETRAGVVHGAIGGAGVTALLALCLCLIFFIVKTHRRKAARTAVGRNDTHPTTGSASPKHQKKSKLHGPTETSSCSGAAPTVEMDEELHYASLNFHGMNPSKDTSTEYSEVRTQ

B1: Refmab #3 (antibody, V domains shown)
VH: QVQLVQSGAEVKKPGSSVKVSCKASGYTFTDYNMHWVRQAPGQGLEWIGYIYPYNGGTGYNQKFKSKATITADESTNTAYMELSSLRSEDTAVYYCARGRPAMDYWGQGTLVTVSS
VL: DIQMTQSPSSLSASVGDRVTITCRASESVDNYGISFMNWFQQKPGKAPKLLIYAASNQGSGVPSRFSGSGSGTDFTLTISSLQPDDFATYYCQQSKEVPWTFGQGTKVEIK
notes: Full-length MAb format, human IgG1 Fc silent (PG-LALA)
binding result [1]: no binding | Signal:Background [2]: 35 signal:background ratio

B2: Refmab #4 (antibody, human IgG1, V domains shown)
VH: QVQLVQSGAEVKKPGESVKVSCKASGYTFTNYGMNWVKQAPGQGLEWMGWINTYTGEPTYADKFQGRVTMTTDTSTSTAYMEIRNLGGDDTAVYYCARWSWSDGYYVYFDYWGQGTSVTVSS
VL: DIVMTQSPDSLTVSLGERTTINCKSSQSVLDSSTNKNSLAWYQQKPGQPPKLLLSWASTRESGIPDRFSGSGSGTDFTLTIDSPQPEDSATYYCQQSAHFPITFGQGTRLEIK
% WT binding [3]: 96 % WT binding | % WT binding [4]: 88.3 % WT binding | % WT binding [5]: 91 % WT binding | % WT binding [6]: 106 % WT binding | % WT binding [7]: 122 % WT binding | % WT binding [8]: 108 % WT binding | % WT binding [9]: 122 % WT binding | % WT binding [10]: 103 % WT binding | % WT binding [11]: 100 % WT binding | % WT binding [12]: 136 % WT binding | % WT binding [13]: 87.2 % WT binding | % WT binding [14]: 129 % WT binding | % WT binding [15]: 99.3 % WT binding | % WT binding [16]: 73.9 % WT binding | % WT binding [17]: 0 % WT binding | % WT binding [18]: 0 % WT binding | % WT binding [19]: 0 % WT binding | % WT binding [20]: 0 % WT binding | % WT binding [21]: 100 % WT binding | % WT binding [22]: 89 % WT binding | % WT binding [23]: 111 % WT binding | % WT binding [24]: 79.4 % WT binding | % WT binding [25]: 99.5 % WT binding | % WT binding [26]: 87.7 % WT binding
